B1: TwinStrep-MBP-Panx, full length, recombinant (SFiNX subunit) (natural protein)
chain: MEAPMKLEVKVENYVECGINEDEATPLREGTGETPPHAFACGVPMSGSGWCSDPEDGNLVHHSATPTSDEHLQPSLDTIEPKMEPKIKEDADNAMLDSLLADPFENNSPATLQTPADVKPNAMLDSVEQGSRSCELLPSEFSKRENLDDMDLFSLKAAKTLVPDEQQSFPQNDTPIDDPEAADLIAQKREILKMLEMTAENRKVKHKKKKHKKERSHRSNKHQEESRKRNHSNSSSDEGADDKNQFDCDYRGHKKYKNRRGSASSQNESSKERKLRDTELDYVPVRPDEHFIRPIKFSNLIERRPPQVEFNTVNLSKADKRSLAVARAELVLEQIQQKANKEEPPEFHMVDTICKLPVNESFRNQDCFENPSPICNNMNVVYKFNSTPGTRIDLSKWGLETVPEATKRLLRLLGIDVARLKELQSTVKPSQRILKLKKEQLEQGLAPTEEQETATLYKNAATQTERRTATRDAGTQVRLESKLNGAFWQNPHFDPMNLTQHQSNVMLALQEIYQTLPSATMAVKLSRALAPALAIIKGRQP
B2: His6-Ctp, recombinant (SFiNX subunit) (natural protein)
chain: MSDRKAVIKNADMSEEMQQDAVDCATQALEKYNIEKDIAAYIKKEFDKKYNPTWHCIVGRNFGSYVTHETRHFIYFYLGQVAILLFKSG

Legend:
[1] = biological target: Sov NTD (aa 14-90), C-terminal His tagged (D. melanogaster); experiment: ITC
[2] = biological target: Nxf2–Nxt1 heterodimer, recombinant (SFiNX subunits) (Drosophila, UniProt Q9VV73;Q9V3H8); experiment: co-purification of a recombinant complex
Nxf2–Nxt1 heterodimer, recombinant (SFiNX subunits), sequence (Q9VV73 whole entry, one chain of several): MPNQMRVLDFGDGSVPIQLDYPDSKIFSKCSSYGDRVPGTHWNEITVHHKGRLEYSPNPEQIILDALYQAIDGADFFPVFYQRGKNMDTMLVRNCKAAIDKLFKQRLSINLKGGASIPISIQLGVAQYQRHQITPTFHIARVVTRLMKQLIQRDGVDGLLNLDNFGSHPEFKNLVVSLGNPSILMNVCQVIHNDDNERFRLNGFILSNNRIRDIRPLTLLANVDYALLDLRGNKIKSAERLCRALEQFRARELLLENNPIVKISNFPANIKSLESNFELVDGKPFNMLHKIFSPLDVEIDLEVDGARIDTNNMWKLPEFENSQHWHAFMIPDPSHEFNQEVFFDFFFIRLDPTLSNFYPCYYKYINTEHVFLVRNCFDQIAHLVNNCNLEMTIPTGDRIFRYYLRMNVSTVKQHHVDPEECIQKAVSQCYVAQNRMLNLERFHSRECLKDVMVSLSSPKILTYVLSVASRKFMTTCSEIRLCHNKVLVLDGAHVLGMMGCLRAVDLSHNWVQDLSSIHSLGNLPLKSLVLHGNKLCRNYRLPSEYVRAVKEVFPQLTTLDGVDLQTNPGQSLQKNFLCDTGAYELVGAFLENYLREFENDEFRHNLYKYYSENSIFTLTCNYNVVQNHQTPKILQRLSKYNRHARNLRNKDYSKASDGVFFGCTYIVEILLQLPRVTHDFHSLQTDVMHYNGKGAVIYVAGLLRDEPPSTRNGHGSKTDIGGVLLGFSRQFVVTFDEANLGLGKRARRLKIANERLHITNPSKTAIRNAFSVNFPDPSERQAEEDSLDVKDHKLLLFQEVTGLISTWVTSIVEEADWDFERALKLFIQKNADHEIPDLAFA

[3] = biological target: B1; experiment: co-purification of a recombinant complex

His-SUMO tagged Panx LxxLL peptide (aa 82-108), wildtype (from UniProt Q9W2H9 82-108)
Kd [1]: 870 nM

B1
binding result [2]: binds

B2
binding result [3]: binds
